Ends that are not written are not given here. * marks the point of attachment. FITC = O=C1OC2(c3ccc(O)cc3Oc3cc(O)ccc32)c2ccc(NC(=S)*)cc21; Ahx = NCCCCCC(=O)O

This note sets out measurements from patent publication US20160258933A1 (Dana-Farber, published 2016).

One test deals with T1, GST-BFL-1 (human, UniProt Q16548 1-153, limits assumed).
T1 construct: Bacterially expressed GST fusion; not shown: GST tag
T1 sequence (looked up): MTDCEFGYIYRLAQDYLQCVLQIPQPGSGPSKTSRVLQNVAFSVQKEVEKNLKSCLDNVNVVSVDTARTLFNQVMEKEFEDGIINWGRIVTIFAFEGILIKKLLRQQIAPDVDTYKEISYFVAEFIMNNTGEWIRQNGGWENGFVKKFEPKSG
Put plainly: fluorescence polarization, FITC peptide with GST-BFL-1. On the procedure: (§1) Binding assays were performed using fluorescence polarization as previously described (Letai et al., 2002). A minimum of three independent experiments were used to determine each dissociation constant.
(§2) To determine selectivity in interactions among antiapoptotic BCL-2 family members and BH3 domains of BH3-only proteins, fluorescence polarization binding assays (FPA) were used. Antiapoptotic proteins BCL-2, BCL-XL, MCL-1, BCL-w, and BFL-1 were purified from transfected bacteria as GST fusion proteins. Oligopeptides used for FPA were tagged with an N-terminal FITC moiety.

The next test addresses T2, GST-BCL-w (human, UniProt Q92843 1-164, limits assumed).
T2 construct: Bacterially expressed GST fusion; not shown: GST tag
T2 sequence (looked up): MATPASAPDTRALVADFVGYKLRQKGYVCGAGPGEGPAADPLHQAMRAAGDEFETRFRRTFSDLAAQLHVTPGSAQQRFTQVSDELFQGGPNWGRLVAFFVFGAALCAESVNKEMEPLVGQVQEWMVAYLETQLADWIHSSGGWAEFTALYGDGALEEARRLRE
The test is described as follows: fluorescence polarization, FITC peptide with GST-BCL-w. On the procedure:
as §1, §2
A general note: In fluorescence polarisation assays a small probe gives low polarisation when free and higher when bound to something large.

Test [1] addresses T3, GST-BCL-2 (human, UniProt P10415 1-218, limits assumed).
T3 construct: Bacterially expressed GST fusion; not shown: GST tag
The test is described as follows: fluorescence polarization, FITC peptide with GST-BCL-2. On the procedure:
as §1, §2

A further test concerns the target T4, GST-BCL-XL (human, UniProt Q07817 1-212, limits assumed).
T4 construct: Bacterially expressed GST fusion; not shown: GST tag
The test is described as follows: fluorescence polarization, FITC peptide with GST-BCL-XL. On the procedure: as §1, §2

Test [2] deals with T3, GST-BCL-2. The test is described as follows: fluorescence polarization (Table 2b) as retold.
The target in test [3] is T3, GST-BCL-2. Put plainly: fluorescence polarization displacement of fluorescein BIM BH3 from 0.5 uM GST-BCL-2. On the procedure:
as §1

The target of the next test is T5, GST-MCL-1 (human, UniProt Q07820 1-327, limits assumed).
T5 construct: not shown: GST tag
T5 sequence (Q07820 1-327 limits assumed): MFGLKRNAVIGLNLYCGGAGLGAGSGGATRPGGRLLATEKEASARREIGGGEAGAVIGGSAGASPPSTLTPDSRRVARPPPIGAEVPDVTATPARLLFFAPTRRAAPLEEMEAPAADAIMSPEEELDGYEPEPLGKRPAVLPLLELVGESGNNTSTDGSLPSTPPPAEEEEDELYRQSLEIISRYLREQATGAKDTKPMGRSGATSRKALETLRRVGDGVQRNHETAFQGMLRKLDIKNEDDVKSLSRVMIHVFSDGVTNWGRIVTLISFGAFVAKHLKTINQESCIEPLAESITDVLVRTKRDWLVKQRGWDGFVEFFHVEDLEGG
Put plainly: fluorescence polarization displacement of fluorescein BIM BH3 from 0.1 uM GST-MCL-1. On the procedure:
as §1

T3 sequence (P10415 1-218 limits assumed): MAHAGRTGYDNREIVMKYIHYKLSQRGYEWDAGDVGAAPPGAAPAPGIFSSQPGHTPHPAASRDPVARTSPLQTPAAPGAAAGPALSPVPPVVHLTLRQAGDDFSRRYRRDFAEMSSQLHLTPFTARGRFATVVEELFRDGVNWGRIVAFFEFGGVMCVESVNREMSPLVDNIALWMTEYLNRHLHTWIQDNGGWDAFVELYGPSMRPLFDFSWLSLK
T4 sequence (Q07817 1-212 limits assumed): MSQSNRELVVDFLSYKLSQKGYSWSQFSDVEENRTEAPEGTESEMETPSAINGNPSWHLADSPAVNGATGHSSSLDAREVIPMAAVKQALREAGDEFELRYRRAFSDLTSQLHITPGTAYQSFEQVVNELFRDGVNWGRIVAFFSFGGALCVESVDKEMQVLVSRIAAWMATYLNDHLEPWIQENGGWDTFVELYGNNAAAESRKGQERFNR

B1: NOXA B BH3 peptide, N-terminal fluorescein tagged (peptide)
peptide: {FITC-Ahx}-PADLKDECAQLRRIGDKVNL
As for B1, the binding result with GST-BFL-1, with GST-BCL-w, with GST-BCL-2 [1] and with GST-BCL-XL was “no binding” each time.

B2: BIK BH3 peptide, N-terminal fluorescein tagged (peptide)
peptide: {FITC-Ahx}-MEGSDALALRLACIGDEMDV
On to B2, for which, in the test with GST-BCL-2 [2], the “fold lower affinity than BAD BH3” value was roughly 10 fold and the “fold lower affinity than BAD, PUMA or BMF BH3” value is roughly 10 fold.

B3: NOXA A BH3 peptide (no tag stated) (peptide)
peptide: AELPPEFAAQLRKIGDKVYC
notes: Peptide as titrated in the displacement assay and used on mitochondria and cells
Regarding B3, the binding result in the test with GST-BCL-2 [3] is listed as “no binding”.

B4: BAD BH3 peptide (no tag stated) (peptide)
peptide: LWAAQRYGRELRRMSDEFEGSFKGL
notes: as for B3
For the molecule B4, the binding result with GST-MCL-1 is on record as “no binding”.

B5: NOXA A BH3 peptide, N-terminal fluorescein tagged (peptide)
peptide: {FITC-Ahx}-AELPPEFAAQLRKIGDKVYC
For B5, the binding result with GST-BFL-1, with GST-BCL-w, with GST-BCL-2 [1] and in the test with GST-BCL-XL was “no binding” throughout.
